Assays:
[1] = target: tag-free BcsRQ complex (E. coli 1094) (UniProt P37655); assay: SEC-MALS; purified tag-free BcsERQ^FL complex on Superose 6 Increase 10/300 GL, with Cymal-6 detergent
[2] = target: BcsQ (tag-free) (E. coli 1094) (UniProt P37655); assay: SEC-MALS; purified sample on Superdex 200 Increase 10/300 GL in its gel filtration buffer (20 mM HEPES pH 8.0, 120 mM NaCl, 2 mM DTT for BcsRQ), 0.5 ml/min
[3] = target: BcsE^217-523 (purified, tag-free) (E. coli 1094) (UniProt P37657); assay: ITC; apparent constants; Microcal VP-ITC, 20 C; tag-free BcsRQ (180 uM, syringe) titrated into BcsE^217-523 (18 uM, cuvette); 20 mM HEPES pH 8.0, 100 mM NaCl, 2 mM DTT; single-site binding model

A stoichiometry N (BcsE:BcsR:BcsQ, printed as 2:2:2) [1] of 1 was found for “BcsE^FL (tag-free) (from UniProt P37657 1-523) (natural protein)” in this work.
A stoichiometry N (BcsR:BcsQ, printed as 2:2) [2] of 1 was found for “BcsR (His tag cleaved, in tag-free BcsRQ) (natural protein)” in this work.
A Kd [3] of 16 nM and a stoichiometry N [3] of 0.95 were found for “tag-free BcsRQ complex (from UniProt P37655 1-242)” in this work.

Reference: PMC7439463
